Residue numbers refer to the chain shown, from its start.
Legend:
His6-Cps2D wild-type = target: T1, His6-Cps2D wild-type (Streptococcus pneumoniae type 2 (D39), UniProt Q9ZII6 1-226); assay: BLI; Blitz system; His6-Cps2D protein (1 μM) immobilised on Ni-NTA sensors; GST-SpAdK 2.5-50 μM; buffer D (250 mM NaCl, 50 mM Tris-HCl, pH 7.5, 1 mM DTT) with 5 mM Mg-ATP; GST and sensor background subtracted; steady-state analysis; apparent Kd; conditions: both partners purified
T1 construct: autophosphorylating tyrosine kinase Cps2D of Streptococcus pneumoniae type 2 (D39), approximately 226 amino acids; also called Cps2D WT; pCPS03; source: recombinant, purified to homogeneity; plasmid pCPS03 (E. coli plasmid pHis-parallel 2); cloning and purification in the Supplementary Information
T1 sequence: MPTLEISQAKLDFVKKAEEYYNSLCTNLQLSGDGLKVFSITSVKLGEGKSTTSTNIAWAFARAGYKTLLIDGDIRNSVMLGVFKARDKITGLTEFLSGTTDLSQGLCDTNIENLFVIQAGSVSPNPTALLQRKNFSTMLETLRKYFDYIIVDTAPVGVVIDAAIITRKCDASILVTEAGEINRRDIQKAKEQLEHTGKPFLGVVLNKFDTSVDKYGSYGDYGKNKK

[1] = target: T2, His6-Cps2D 3Y3E (Y215E/Y218E/Y221E) (Streptococcus pneumoniae type 2 (D39), UniProt Q9ZII6 1-226, Y215E | Y218E | Y221E); assay: as above; conditions: both partners purified
T2 construct: tyrosine kinase Cps2D of Streptococcus pneumoniae type 2 (D39), triple phosphomimetic mutant of the C-terminal tyrosine cluster; also called pCPS04; source: recombinant, purified to homogeneity; plasmid pCPS04 (E. coli plasmid pHis-parallel 2); cloning and purification in the Supplementary Information
T2 sequence: T1 sequence with Y215E, Y218E, Y221E

B1: GST-SpAdK (Streptococcus pneumoniae adenylate kinase, GST-tagged) (enzyme)
chain: MNLLIMGLPGAGKGTQAAKIVEQFHVAHISTGDMFRAAMANQTEMGVLAKSYIDKGELVPDEVTNGIVKERLSQDDIKETGFLLDGYPRTIEQAHALDKTLAELGIELEGIINIEVNPDSLLERLSGRIIHRVTGETFHKVFNPPVDYKEEDYYQREDDKPETVKRRLDVNIAQGEPIIAHYRAKGLVHDIEGNQDINDVFSDIEKVLTNLK
notes: adenylate kinase of Streptococcus pneumoniae (SpAdK); also called glutathione S-transferase (GST)-SpAdK; pGST-ADK; source: recombinant, purified; plasmid pGST-ADK (E. coli plasmid pGST-parallel 2); cloning and purification in the Supplementary Information
- Kd (His6-Cps2D wild-type): 31 ± 5 µM
- Kd [1]: 40 ± 17 µM

From article PMC6123713, “Adenylate kinase potentiates the capsular polysaccharide by modulating Cps2D in Streptococcus pneumoniae D39” (Experimental & Molecular Medicine, 2018)
